{
  "source": "patent US20260234738A1",
  "about": "(Regeneron, published 2026)",
  "binders": {"B1": {"name": "mAb10986 (antibody, V domains shown)", "VH": "EVQLVESGGGLVQPGGSLRLSCAASEFTVSSNYMSWVRQAPGKGLEWVSVIYSGGSTFYADSVKGRFTISRDNSKNTLYLQMNSLRAEDTAVYYCARALPYGDLHFDYWGQGTLVTVSS", "VL": "QSVLTQPPSVSGAPGQRVTISCTGSSSNIGTGYDVHWYQQLPGTAPKLLIYGNTNRPSGVPDRFSGSKSGTSASLAITGLQAEDEADYYCQSYDSSLSDSYVFGTGTKVTVLG"}, "B2": {"name": "mAb10989 (antibody, V domains shown)", "VH": "QVQLVQSGAEVKKPGASVKVSCKASGYIFTGYYMHWVRQAPGQGLEWMGWINPNSGGANYAQKFQGRVTLTRDTSITTVYMELSRLRFDDTAVYYCARGSRYDWNQNNWFDPWGQGTLVTVSS", "VL": "QSALTQPASVSGSPGQSITISCTGTSSDVGTYNYVSWYQQHPGKAPKLMIFDVSNRPSGVSDRFSGSKSGNTASLTISGLQAEDEADYYCSSFTTSSTVVFGGGTKLTVLG"}, "B3": {"name": "mAb11008 (antibody, V domains shown)", "VH": "EVQLVESGGGLVQPGGSLRLSCAASGFTVSSNYMTWVRQAPGKGLEWVSVIYSGGSTFYADSVKGRFTISRHNSENTLYLQMNSLRAEDTAVYYCARDLAAAGTDYWGQGALVTVSS", "VL": "DIQLTQSPSFLSASVGDRVTITCWASQGISSYLAWYQQKPGKAPKLLIYAASTLQSGVPSRFSGSGSGTEFTLTISSLQPDDFATYYCQHLNSYLYTFGQGTKLEIKR"}, "B4": {"name": "mAb11006 (antibody, V domains shown)", "VH": "EVQLVESGGGLVQPGGSLRLSCAASGFIVSRNYMSWVRQAPGKGLEWVSVIYSGGSTFYADSVKGRFTISRHNSKNTLYLQMNSLKAEDTAVYYCARELRGYFDYWGQGTLVTVSS", "VL": "B3 VL with D81E, H90L, L95P"}, "B5": {"name": "mAb10998 (antibody, V domains shown)", "VH": "EVQLVESGGGLVHPGGSLRLSCAASGLTVSSNYMSWVRQAPGKGLEWVSVIYSGGSTYYADSVKGRFTISRHNSKNTLFLQMNSLRAEDTAVYYCARDRPITGTTLDVWGQGTTVTVSS", "VL": "DIQMTQSPSSLFASVGDRVTITCRASQSISSYLNWYQQKPGKAPKLLIYAASSLQSGVPSRFSGSGSGTDFTLTISSLQPEDFAFYYCQQTYSTPPITFGQGTRLEIKR"}, "B6": {"name": "mAb11010 (antibody, V domains shown)", "VH": "QVQLVESGGGVVQPGRSLRLSCAASGFTFSSYGMHWVRQAPGKGLEWVAVISYDGSYKYYADSVKGRFTISRDNSKNTLYLQMNSLRAEDTAVYYCAIDGGTVTTIFDYWGQGTLVTVSS", "VL": "not shown"}, "B7": {"name": "mAb10986 (antibody, V domains shown)", "VH": "B1 VH", "VL": "B1 VL"}, "B8": {"name": "mAb10914 (antibody, V domains shown)", "VH": "EVQLVESGGGLVQPGGSLRLSCAASGLIVSRNYMIWVRQAPGKGLEWVSVIYSGGSTFYADSVKGRFTISRHNSKNTLYLQMNSLRAEDTAVYYCARDLGTGGMDVWGQGTTVTVSS", "VL": "B3 VL with D81E, H90Q, L95P, Y96L, Q100G, L104V"}, "B9": {"name": "mAb10913 (antibody, V domains shown)", "VH": "EVQLVESGGGLVQPGGSLRLSCAASGFTFRNYEMNWVRQAPGKGLEWVSYITSSGSTMYYADSVKGRFTISRDNAKNSLYLQMNSLRAEDTAVYYCARDGFYYYYAMDVWGQGTTVTVSS", "VL": "QSVLTQPPSVSAAPGQKVTISCSGSSSNIGNNYVSWYQQLPGTAPKLLIYDNNKRPSGIPDRFSGSKSGTSATLGITGLQTGDEADYYCGTWDSSLSVGRVFGTGTKVTVLG"}},
  "note": "Substitutions are numbered along the chain they refer to. Where “and” joins values, the source holds several entries; their conditions need not be identical. Equal values may be shown once.",
  "data": [
    {"molecular_target": "SARS-COV-2 Spike protein receptor binding domain (amino acids Arg319-Phe541) expressed with the Fc p (SARS-CoV-2)", "experiment": "not given", "values": [
      {"binder": "B1", "IC50": "0.0754 nM"},
      {"binder": "B2", "IC50": "0.0591 nM and 0.0428 nM"},
      {"binder": "B3", "IC50": "1.49 nM"},
      {"binder": "B4", "IC50": "0.22 nM"},
      {"binder": "B5", "IC50": "4.3 nM"},
      {"binder": "B6", "IC50": "0.147 nM"}
    ]},
    {"molecular_target": "Bt-SARS-CoV-2 Spike Protein (RBD) (R319-F541).mFc (SARS-CoV-2)", "experiment": "Luminex beads, supernatant", "units": {"MFI": "MFI"}, "values": [
      {"binder": "B7", "MFI": 15900},
      {"binder": "B8", "MFI": 16000},
      {"binder": "B9", "MFI": 16600}
    ]},
    {"molecular_target": "SARS-CoV-2 Spike Protein (RBD) (R319-F541).mFc (SARS-CoV-2)", "experiment": "Luminex beads, supernatant", "units": {"MFI": "MFI"}, "values": [
      {"binder": "B7", "MFI": 28400},
      {"binder": "B8", "MFI": 30700},
      {"binder": "B9", "MFI": 33000}
    ]},
    {"molecular_target": "SARS-CoV-2 Spike Protein (RBD) (R319-F541).hFc (SARS-CoV-2)", "experiment": "Luminex beads, supernatant", "units": {"MFI": "MFI"}, "values": [
      {"binder": "B8", "MFI": 30500},
      {"binder": "B9", "MFI": 31900}
    ]}
  ]
}
